Data as given in article PMC10400651, “Gain-of-function mutant p53 together with ERG proto-oncogene drive prostate cancer by beta-catenin activation and pyrimidine synthesis”.

Target: p53 WT (UniProt P04637 1-393)
Test: EMSA; Thermo EMSA kit (20148) protocol; 6% native PAGE; supershift with 1 ug anti-p53 for 1 h at room temperature; recombinant p53 eluted in PBS; buffer, salt and pH
Settings: protein: recombinant; tags: untagged after thrombin cleavage of GST; chain copies: 4; label: biotin; blunt

Sequence of p53 WT (P04637 whole entry): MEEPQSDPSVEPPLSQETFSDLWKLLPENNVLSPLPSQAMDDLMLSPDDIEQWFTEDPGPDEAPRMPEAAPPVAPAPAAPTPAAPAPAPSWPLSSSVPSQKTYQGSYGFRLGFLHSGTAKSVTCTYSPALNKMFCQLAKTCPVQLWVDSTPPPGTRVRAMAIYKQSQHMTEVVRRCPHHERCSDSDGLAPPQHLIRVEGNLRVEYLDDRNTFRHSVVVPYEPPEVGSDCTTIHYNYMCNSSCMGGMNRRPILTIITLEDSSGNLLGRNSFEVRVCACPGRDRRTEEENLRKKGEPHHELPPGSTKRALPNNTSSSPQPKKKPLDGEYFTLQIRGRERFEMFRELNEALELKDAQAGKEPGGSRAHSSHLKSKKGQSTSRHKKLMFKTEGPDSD

B1: CTNNB1-probe1 (MP53BS) (dsDNA)
DNA 1: GCCCCCTCGCGCCCCGCCCCTTGTC
DNA 2: GACAAGGGGCGGGGCGCGAGGGGGC
B1: no binding.
